Target: integrin β1 (receptor subunit on the seeded cells, blocked with anti-β1 monoclonal antibody) (hamster (baby hamster kidney cells))
Assay: cell-based or functional assay

In the case of “TMV-RGD1 (Tobacco mosaic virus particle whose coat protein carries the insert GRGDSPG extended after T159) (from UniProt P69687 2-159)”, the cell attachment on virus coated plate after blocking the cells with integrin specific monoclonal antibody (% drop in attachment) is reported as 25.

Source: patent publication US20140287507A1
